We go through 1 substance from publication PMC10635376, “New insights into the mechanism and DNA-sequence specificity of INO80 chromatin remodeling” (Research Square, 2023).

The experiment addresses Recombinant Xenopus laevis histone octamer reconstituted into 70N5 mononucleosomes (Xenopus laevis). In words: native gel or EMSA; 70N5 601 nucleosomes with photo-reactive DNA bound with saturating INO80 at 30 C for 30 min; extent of binding on 4% native polyacrylamide gels. On the technique in general: Mobility shift assays separate free from complexed probe on a gel.

Take “Native wild-type Saccharomyces cerevisiae INO80 complex (from UniProt P53115 1-1489; P53946 1-755; P32617 1-166; P40154 1-320; Q12386 1-881; P80428 1-489; P60010 1-375)”: the percent of nucleosomes bound was > 90%.
